Experimental data as given in paper PMC9599597.

Biological target: F5_SusD-like protein (uncultured human gut Bacteroides strain)
Assay: SEC; Superdex 200 16/600 column; 20 mM Tris-HCl, 150 mM NaCl, pH 7.5

stoichiometry N: 2
Substance: F5_SusD-like protein (natural protein)
